Measurements reported in paper PMC4960241.

Target: Helicobacter pylori dimeric oxidoreductase DsbK (HP0231), native (Helicobacter pylori)
Assay: SEC; size exclusion; conditions not shown (Supplementary Table S3)

Question: How did the stoichiometry N turn out when “Helicobacter pylori dimeric oxidoreductase DsbK (HP0231), native (enzyme)” was run?
Answer: Its stoichiometry N is 2.
